T1: Tim-1 on CHO-Tim-1 transfectants (CHO-K1 cells transfected with pEF6 containing murine Tim-1 cDNA) (murine, UniProt Q5QNS5 22-305)
T1 sequence: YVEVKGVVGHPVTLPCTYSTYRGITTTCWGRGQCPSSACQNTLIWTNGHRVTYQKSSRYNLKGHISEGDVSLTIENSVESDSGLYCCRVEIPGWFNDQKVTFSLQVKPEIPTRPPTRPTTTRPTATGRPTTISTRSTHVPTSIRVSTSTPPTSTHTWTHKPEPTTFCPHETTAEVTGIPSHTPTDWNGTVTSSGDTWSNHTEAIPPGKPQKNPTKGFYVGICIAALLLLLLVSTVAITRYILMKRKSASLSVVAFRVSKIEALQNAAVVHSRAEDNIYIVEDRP

T2: Tim-2 on CHO-Tim-2 transfectants (mouse, UniProt Q8R183 22-305)
T2 sequence: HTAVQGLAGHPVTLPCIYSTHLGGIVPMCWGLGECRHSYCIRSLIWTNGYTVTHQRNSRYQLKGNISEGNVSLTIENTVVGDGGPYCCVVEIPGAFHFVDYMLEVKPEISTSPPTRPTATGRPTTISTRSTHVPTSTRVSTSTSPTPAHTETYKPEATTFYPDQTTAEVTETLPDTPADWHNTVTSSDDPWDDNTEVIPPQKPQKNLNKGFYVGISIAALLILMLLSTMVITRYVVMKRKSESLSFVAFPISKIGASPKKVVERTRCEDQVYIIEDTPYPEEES

T3: Tim-4 on CHO or HEK293 transfectants (Tim-4-pDisplay construct, N-terminal HA tag, Tim-4 signal sequence … (mouse, UniProt Q6U7R4 30-343))
T3 construct: also called Tim-4 transfectants; CHO-Tim-4; not shown: N-terminal HA tag of the pDisplay vector
T3 sequence: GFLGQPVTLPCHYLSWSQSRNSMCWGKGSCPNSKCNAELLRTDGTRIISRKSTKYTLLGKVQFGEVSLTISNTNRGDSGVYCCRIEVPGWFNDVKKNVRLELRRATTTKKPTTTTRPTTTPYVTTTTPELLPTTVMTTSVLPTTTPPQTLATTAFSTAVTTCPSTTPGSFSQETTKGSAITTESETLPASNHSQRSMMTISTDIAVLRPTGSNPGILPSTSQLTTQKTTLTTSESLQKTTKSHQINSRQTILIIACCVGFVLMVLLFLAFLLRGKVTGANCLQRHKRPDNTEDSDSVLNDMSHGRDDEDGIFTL

B1: Tim-1-Ig, full-length (Tim-1 extracellular IgV and mucin domains fused to human IgG1 Fc tail) (Fc fusion)
chain: YVEVKGVVGHPVTLPCTYSTYRGITTTCWGRGQCPSSACQNTLIWTNGHRVTYQKSSRYNLKGHISEGDVSLTIENSVESDSGLYCCRVEIPGWFNDQKVTFSLQVKPEIPTRPPTRPTTTRPTATGRPTTISTRSTHVPTSIRVSTSTPPTSTHTWTHKPEPTTFCPHETTAEVTGIPSHTPTDWNGTVTSSGDTWSNHTEAIPPGKPQKNPTKG
notes: Only the extracellular IgV and mucin part stood in the assay; also called Tim1/Fc; full-length Tim-1-Ig; not shown: human IgG1 Fc tail
B2: Tim-1-Ig containing only the Tim-1 IgV domain (Fc fusion)
chain: SYVEVKGVVGHPVTLPCTYSTYRGITTTCWGRGQCPSSACQNTLIWTNGHRVTYQKSSRYNLKGHISEGDVSLTIENSVESDSGLYCCRVEIPGWFNDQKVTFSLQVKP
notes: also called Tim-1-Ig (IgV only); Tim-1-Ig fusion polypeptide (containing only the Tim-1 IgV domain); not shown: Ig Fc tail
B3: Tim-4-Ig (soluble Ig fusion polypeptide: extracellular IgV and mucin domains of Tim-4 fused to a human IgG1 Fc tail) (Fc fusion)
chain: FLGQPVTLPCHYLSWSQSRNSMCWGKGSCPNSKCNAELLRTDGTRIISRKSTKYTLLGKVQFGEVSLTISNTNRGDSGVYCCRIEVPGWFNDVKKNVRLELRRATTTKKPTTTTRPTTTPYVTTTTPELLPTTVMTTSVLPTTTPPQTLATTAFSTAVTTCPSTTPGSFSQETTKGSAITTESETLPASNHSQRSMMTISTDIAVLRPTGSNPGILPSTSQLTTQKTTLTTSESLQKTTKSHQINSRQTIL
notes: Made by Chimerigen; also called tim-4:Ig fusion; not shown: human IgG1 Fc tail
B4: Tim-2-Ig (Tim-2 extracellular IgV and mucin domains fused to human IgG1 Fc tail) (Fc fusion)
chain: HTAVQGLAGHPVTLPCIYSTHLGGIVPMCWGLGECRHSYCIRSLIWTNGYTVTHQRNSRYQLKGNISEGNVSLTIENTVVGDGGPYCCVVEIPGAFHFVDYMLEVKPEISTSPPTRPTATGRPTTISTRSTHVPTSTRVSTSTSPTPAHTETYKPEATTFYPDQTTAEVTETLPDTPADWHNTVTSSDDPWDDNTEVIPPQKPQKNLNKG
notes: Only the extracellular IgV and mucin part stood in the assay; also called Tim2/Fc; not shown: human IgG1 Fc tail

How the values were obtained:
[1] = target: T1, Tim-1 on CHO-Tim-1 transfectants …; assay: flow cytometry, cell surface staining of CHO transfectants
[2] = target: T2, Tim-2 on CHO-Tim-2 transfectants; assay: as above
[3] = target: T4, Tim-3 on CHO-Tim-3 transfectants (UniProt Q8VIM0 20-281, limits assumed); assay: as above
T4 construct: whole, on cells

[4] = target: T3, Tim-4 on CHO or HEK293 transfectants …; assay: flow cytometry, cell surface staining of CHO transfectants (FIG. 14A)
[5] = target: T3, Tim-4 on CHO or HEK293 transfectants …; assay: flow cytometry, cell surface staining of CHO transfectants

T4 sequence (Q8VIM0 20-281 limits assumed): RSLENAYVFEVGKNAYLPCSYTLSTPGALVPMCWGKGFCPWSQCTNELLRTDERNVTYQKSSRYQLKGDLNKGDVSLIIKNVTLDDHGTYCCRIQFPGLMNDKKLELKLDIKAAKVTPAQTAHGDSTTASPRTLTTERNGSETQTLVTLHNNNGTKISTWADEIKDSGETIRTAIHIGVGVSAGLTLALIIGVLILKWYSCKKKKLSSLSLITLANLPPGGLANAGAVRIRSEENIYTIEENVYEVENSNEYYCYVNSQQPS

Row | Binder | binding result [1] | binding result [2] | binding result [3] | binding result [4] | binding result [5]
1 | B1 | no binding | no binding | no binding | binds | 
2 | B2 |  |  |  | binds | 
3 | B3 |  | no binding | no binding |  | no binding
4 | B4 | no binding | no binding | no binding |  | no binding

— US20110045002A1 (BRIGHAM AND WOMEN S HOSPITAL, published 2011)
